Like-named read-outs stand apart in the source and are kept apart here.
Columns and labels:
Test in all cases: split reporter
[1] = target: Rsr1 GTPase, split-YFP fusion for BiFC (YFP^N-Rsr1 / YFP^C-Rsr1) (S. cerevisiae) (UniProt P13856)
[2] = target: Rsr1 GTPase, split-YFP fusion for BiFC (YFP^N-Rsr1 / YFP^C-Rsr1) (S. cerevisiae) (UniProt P13856); remark: listed apart in the source
[3] = target: the molecule itself

percent of unbudded cells with BiFC signal [1]	percent of unbudded cells with BiFC signal [2]	Molecule	percent of unbudded cells with BiFC signal [3]
< 2%	1.7%	Rsr1-7^K260–264S, split-YFP fusion for BiFC (from UniProt P13856 1-272) (natural protein)	–
–	–	Rsr1^K16N, split-YFP fusion for BiFC (natural protein, S. cerevisiae, UniProt P13856 1-272, looked up) MRDYKLVVLGAGGVGNSCLTVQFVQGVYLDTYDPTIEDSYRKTIEIDNKVFDLEILDTAGIAQFTAMRELYIKSGMGFLLVYSVTDRQSLEELMELREQVLRIKDSDRVPMVLIGNKADLINERVISVEEGIEVSSKWGRVPFYETSALLRSNVDEVFVDLVRQIIRNEMESVAVKDARNQSQQFSKIESPSTRLPSSAKQDTKQSNNKQSSKGLYNKSSQGQAKVKQSTPVNEKHKPSHAVPKSGSSNRTGISATSQQKKKKKNASTCTIL	84%
